Measurements reported in paper PMC3478282, “Probing the Putative Active Site of YjdL: An Unusual Proton-Coupled Oligopeptide Transporter from E. coli” (PLoS ONE, 2012).
Substitutions are numbered along the chain they refer to. Read-outs that look alike come from different tables or passages of the source. Residues, ends and D or L forms follow the SMILES beside them.

Columns and labels:
YjdL Tyr25Phe = molecular target: T1, YjdL Tyr25Phe (Escherichia coli, UniProt P39276, Y25F); assay: β-Ala-Lys(AMCA) uptake and inhibition assay, YjdL Tyr25Phe; assay type: cell-based, E. coli; settings: 0.2 mM β-Ala-Lys(AMCA), 5 min incubation, pH 6.5; ±SEM, n≥3
T1 construct: expressed in transfected cells; host or cells: E. coli BL21(DE3)pLysS, pTTQ18-yjdL mutant (QuikChange)
T1 sequence (P39276 1-485 Y25F): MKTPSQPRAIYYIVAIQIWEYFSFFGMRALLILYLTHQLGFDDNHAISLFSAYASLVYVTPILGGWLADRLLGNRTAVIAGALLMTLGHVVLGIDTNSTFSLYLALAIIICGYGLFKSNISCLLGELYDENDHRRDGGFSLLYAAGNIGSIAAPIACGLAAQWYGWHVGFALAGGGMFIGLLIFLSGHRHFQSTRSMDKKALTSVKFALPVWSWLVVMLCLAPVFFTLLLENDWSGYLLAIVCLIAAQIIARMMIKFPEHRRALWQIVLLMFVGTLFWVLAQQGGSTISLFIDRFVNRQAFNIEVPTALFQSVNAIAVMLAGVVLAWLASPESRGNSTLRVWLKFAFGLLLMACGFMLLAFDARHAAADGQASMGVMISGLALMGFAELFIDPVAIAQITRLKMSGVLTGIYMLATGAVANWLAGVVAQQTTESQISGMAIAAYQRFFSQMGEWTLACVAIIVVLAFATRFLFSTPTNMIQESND
Procedure: (§1) Plasmids were transformed into E. coli BL21(DE3)pLysS cells by heat shock and transformants were selected on agar plates containing 100 µg/mL ampicillin and 34 µg/mL chloramphenicol. Single transformants were inoculated into 2 mL LB-media with antibiotics as above and grown overnight. The cultures were diluted 1∶50 in 5 mL LB-media with antibiotics as above, and at an OD600 of 0.5–0.8 protein expression was induced by the addition of 1 mM isopropyl β-D-1-thiogalactopyranoside (IPTG). The cells were harvested after three hours of induction by centrifugation and resuspended in uptake buffer (50 mM MES pH 6.5, 140 mM NaCl, 5.4 mM KCl, 1.8 mM CaCl2, 0.8 mM MgSO4, and 5 mM glucose).
(§2) Uptake assays were performed as previously described, [20]. In a final assay volume of 100 µL; 0.2 mM β-Ala-Lys-N-7-amino-4-methylcoumarin-3-acetic acid (β-Ala-Lys(AMCA), Biotrend) (10 µL) and various concentrations of ligands (purchased from Bachem or Sigma-Aldrich) or uptake buffer (50 µL) were incubated with bacterial cell suspension (OD600 = 10, 40 µL) at 37°C. After 5 min, the uptake was stopped by addition of 500 µL ice-cold uptake buffer followed by immediate centrifugation and washing twice in ice-cold uptake buffer. Finally the cell pellet was resuspended in 100 µL uptake buffer, and the uptake was quantified by fluorescence measurements (excitation at 340 nm and emission at 460 nm) on a Safire 2 fluorimeter. Non-specific uptake was measured as described above on IPTG-induced E. coli BL21(DE3)pLysS cells harboring the empty pTTQ18 vector. All uptake assay experiments were reproduced at least three times independently and data analyses were performed using GraphPad Prism ver. 5.

YjdL Ala281Phe = molecular target: T2, YjdL Ala281Phe (Escherichia coli, UniProt P39276, A281F); assay: β-Ala-Lys(AMCA) uptake and inhibition assay, YjdL Ala281Phe; assay type: cell-based, E. coli; settings: for IC50: 0.2 mM β-Ala-Lys(AMCA), 5 min incubation, pH 6.5, ±SEM, n≥3
T2 construct: host or cells: E. coli BL21(DE3)pLysS
T2 sequence (P39276 1-485 A281F): T1 sequence (P39276 1-485 Y25F) with F25Y, A281F
Procedure: as §1, §2

WT-YjdL = molecular target: T3, WT-YjdL (Escherichia coli, UniProt P39276); assay: cell-based; assay type: cell-based, E. coli; settings: for IC50: IC50 (inhibition of β-Ala-Lys(AMCA) uptake), WT-YjdL a
T3 construct: expressed in transfected cells; host or cells: E. coli BL21(DE3)pLysS, pTTQ18-yjdL, IPTG-induced
T3 sequence (P39276 1-485): T1 sequence (P39276 1-485 Y25F) with F25Y
Procedure: as §1, with “The cells were harvested after three hours of induction by centrifugation and resuspended in uptake buffer (50 mM MES pH 6.5, 140 mM NaCl, 5.4 mM KCl, 1.8 mM CaCl2, 0.8 mM MgSO4, and 5 mM glucose).” left out
as §2

[1] = molecular target: YjdL from E. coli, wild type (E. coli) (UniProt P39276)
YjdL-Ala281Phe (E. coli) [2] = molecular target: YjdL-Ala281Phe (E. coli) (UniProt P39276)
[3] = molecular target: YjdL from E. coli, wild type (E. coli) (UniProt P39276); remark: listed apart in the source
[4] = molecular target: YdgR-Tyr292Phe (E. coli MG1655) (UniProt P77304)
YjdL Tyr58Phe (E. coli) = YjdL Tyr58Phe (E. coli) (UniProt P39276)
YjdL Tyr21Phe (E. coli) = YjdL Tyr21Phe (E. coli) (UniProt P39276)
YjdL Tyr25Phe (E. coli) [5] = molecular target: YjdL Tyr25Phe (E. coli) (UniProt P39276)
[6] = molecular target: YdgR-Tyr38Phe (E. coli MG1655) (UniProt P77304)
[7] = molecular target: YdgR-Tyr71Phe (E. coli MG1655) (UniProt P77304)
YjdL-Trp278Phe (E. coli) = YjdL-Trp278Phe (E. coli) (UniProt P39276)
[8] = molecular target: YdgR from E. coli, wild type (E. coli MG1655) (UniProt P77304)
[9] = molecular target: YdgR-Tyr292Ala (E. coli MG1655) (UniProt P77304)
YjdL Tyr113Phe (E. coli) = YjdL Tyr113Phe (E. coli) (UniProt P39276)
YjdL-Ala281Phe (E. coli) [10] = molecular target: YjdL-Ala281Phe (E. coli) (UniProt P39276); remark: listed apart in the source
[11] = molecular target: YjdL from E. coli, wild type (E. coli) (UniProt P39276); remark: listed apart in the source
YjdL Tyr25Phe (E. coli) [12] = molecular target: YjdL Tyr25Phe (E. coli) (UniProt P39276); remark: listed apart in the source
WT-YdgR = molecular target: T4, WT-YdgR (Escherichia coli, UniProt P77304); assay: cell-based; assay type: cell-based, E. coli; settings: 25 mM Tris-HCl, 50 mM MOPS pH 7.4, 0.2 mM β-Ala-Lys(AMCA), 5 min
T4 construct: expressed in transfected cells; host or cells: E. coli BL21(DE3)pLysS, pTTQ18-ydgR, IPTG-induced
T4 sequence (P77304 1-500): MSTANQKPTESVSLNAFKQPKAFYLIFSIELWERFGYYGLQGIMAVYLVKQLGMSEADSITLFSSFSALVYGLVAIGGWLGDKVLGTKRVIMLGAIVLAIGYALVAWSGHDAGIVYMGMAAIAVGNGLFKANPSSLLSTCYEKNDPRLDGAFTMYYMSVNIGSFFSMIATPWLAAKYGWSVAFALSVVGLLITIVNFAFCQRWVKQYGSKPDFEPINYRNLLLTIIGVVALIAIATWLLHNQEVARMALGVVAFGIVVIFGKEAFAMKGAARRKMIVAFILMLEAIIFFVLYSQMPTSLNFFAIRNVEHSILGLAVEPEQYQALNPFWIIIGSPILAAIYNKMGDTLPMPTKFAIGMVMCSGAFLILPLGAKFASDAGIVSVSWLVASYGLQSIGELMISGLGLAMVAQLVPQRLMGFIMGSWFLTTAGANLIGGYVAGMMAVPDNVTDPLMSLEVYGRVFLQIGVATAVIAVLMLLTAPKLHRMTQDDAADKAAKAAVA
Procedure: as §1, with “The cells were harvested after three hours of induction by centrifugation and resuspended in uptake buffer (50 mM MES pH 6.5, 140 mM NaCl, 5.4 mM KCl, 1.8 mM CaCl2, 0.8 mM MgSO4, and 5 mM glucose).” left out
as §2

Row | β-Ala-Lys(AMCA) uptake (0.5 mM) left with 50 mM competitor, E. coli cells, pH 6.5 [1] [%] | IC50 of inhibition of β-Ala-Lys(AMCA) uptake into E. coli cells (0.2 mM substrate, 5 min, pH 6.5) (YjdL-Ala281Phe (E. coli) [2]) [mM] | IC50 of inhibition of β-Ala-Lys(AMCA) uptake into E. coli cells (0.2 mM substrate, 5 min, pH 6.5) [3] [mM] | IC50 of inhibition of β-Ala-Lys(AMCA) uptake into E. coli cells (0.5 mM substrate, 15 min, pH 6.5) [3] [mM] | IC50 of inhibition of β-Ala-Lys(AMCA) uptake into E. coli cells (0.5 mM substrate, 15 min, pH 6.5) (YjdL Tyr58Phe (E. coli)) [mM] | IC50 of inhibition of β-Ala-Lys(AMCA) uptake into E. coli cells (0.2 mM substrate, 5 min, pH 6.5) (YjdL Tyr21Phe (E. coli)) [mM] | IC50 of inhibition of β-Ala-Lys(AMCA) uptake into E. coli cells (0.2 mM substrate, 5 min, pH 6.5) (YjdL Tyr25Phe (E. coli) [5]) [mM] | IC50 of inhibition of β-Ala-Lys(AMCA) uptake into E. coli cells (0.2 mM substrate, 5 min, pH 6.5) (YjdL-Trp278Phe (E. coli)) [mM] | IC50 of inhibition of β-Ala-Lys(AMCA) uptake into E. coli cells (0.2 mM substrate, 5 min, pH 6.5) (YjdL Tyr113Phe (E. coli)) [mM] | IC50 of inhibition of β-Ala-Lys(AMCA) uptake into E. coli cells (0.2 mM substrate, 5 min, pH 6.5) (YjdL-Ala281Phe (E. coli) [10]) [mM] | IC50 of inhibition of β-Ala-Lys(AMCA) uptake into E. coli cells (0.2 mM substrate, 5 min, pH 6.5) [11] [mM] | IC50 of inhibition of β-Ala-Lys(AMCA) uptake into E. coli cells (0.2 mM substrate, 5 min, pH 6.5) (YjdL Tyr25Phe (E. coli) [12]) [mM] | Molecule | IC50 (YjdL Tyr25Phe) [µM] | IC50 (YjdL Ala281Phe) [µM] | increase of IC50 compared to the Ala-Lys value, WT-YjdL (WT-YjdL) | IC50 (WT-YjdL) [µM] | further results
1 | – | – | – | – | – | – | – | – | – | – | – | – | CSCC[C@H](N)C(=O)N[C@@H](CCCCN)C(=O)O [Met-Lys] (H-Met-Lys-OH) | 610 ± 20 | 170 ± 10 | approximately 2 fold | 530 ± 30 | –
2 | – | – | – | – | – | – | – | – | – | – | – | – | NCCCC[C@H](NC(=O)[C@@H](N)Cc1c[nH]c2ccccc12)C(=O)O [Trp-Lys] (H-Trp-Lys-OH) | 580 ± 60 | 90 ± 10 | approximately 2 fold | 600 ± 70 | –
3 | – | – | – | – | – | – | – | – | – | – | – | – | NCCCC[C@H](NC(=O)[C@@H](N)Cc1ccc(O)cc1)C(=O)O [Tyr-Lys] (H-Tyr-Lys-OH) | 670 ± 80 | 30 | approximately 2 fold | 550 ± 40 | decrease of IC50 compared to Ala-Lys, Ala281Phe (YjdL Ala281Phe): approximately 10 fold
4 | < 10 | > 50 | 2.8 | 2.2 | 28.1 | 4.5 | > 50 | 9.9 | 1.9 | – | – | – | Ala-Ala (peptide) | – | – | – | – | IC50 of inhibition of β-Ala-Lys(AMCA) uptake into E. coli cells (0.2 mM substrate, 5 min, pH 6.5) [4]: 0.15 mM; IC50 of inhibition of β-Ala-Lys(AMCA) uptake into E. coli cells (0.5 mM substrate, 15 min, pH 6.5) [6]: 0.92 mM; IC50 of inhibition of β-Ala-Lys(AMCA) uptake into E. coli cells (0.2 mM substrate, 5 min, pH 6.5) [7]: 0.37 mM; IC50 of inhibition of β-Ala-Lys(AMCA) uptake into E. coli cells (0.2 mM substrate, 5 min, pH 6.5) [8]: 0.39 mM; IC50 of inhibition of β-Ala-Lys(AMCA) uptake into E. coli cells (0.5 mM substrate, 15 min, pH 6.5) [8]: 1.04 mM; IC50 of inhibition of β-Ala-Lys(AMCA) uptake into E. coli cells (0.2 mM substrate, 5 min, pH 6.5) [9]: 0.59 mM
5 | < 10 | 21.7 | 0.6 | 1.9 | 2.5 | 1.1 | 36.1 | 0.9 | 1.1 | – | – | – | Ala-Gln (peptide) | – | – | – | – | –
6 | – | – | – | – | – | – | – | – | – | 0.17 | 0.53 | 0.61 | Met-Lys (peptide) | – | – | – | – | –
7 | – | – | – | – | – | – | – | – | – | – | – | – | Tris | – | – | – | – | inhibition of β-Ala-Lys(AMCA) uptake, WT-YdgR (WT-YdgR): no significant inhibition; inhibition of β-Ala-Lys(AMCA) uptake, WT-YjdL (WT-YjdL; 25 mM Tris-HCl, 50 mM MOPS pH 7.4, 0.2 mM β-Ala-Lys(AMCA), 5 min): weak
8 | – | – | – | – | – | – | – | – | – | 0.09 | 0.6 | 0.58 | Trp-Lys (peptide) | – | – | – | – | –
9 | < 10 | 33.2 | 2.4 | 2.4 | 24.1 | 4.7 | 33.7 | 2.8 | 1.3 | – | – | – | Tyr-Ala (peptide) | – | – | – | – | –
10 | – | – | – | – | – | – | – | – | – | 0.03 | 0.55 | 0.67 | Tyr-Lys (peptide) | – | – | – | – | –
